From US20050108782A1, “Transgenic RS1-/- animal and uses thereof” (priority 2003, published 2005)

T1: hSGLT1 (Homo sapiens, UniProt P13866)
T1 construct: expressed in transfected cells; host or cells: Xenopus laevis oocytes (cRNA injection)
T1 sequence (P13866 1-664): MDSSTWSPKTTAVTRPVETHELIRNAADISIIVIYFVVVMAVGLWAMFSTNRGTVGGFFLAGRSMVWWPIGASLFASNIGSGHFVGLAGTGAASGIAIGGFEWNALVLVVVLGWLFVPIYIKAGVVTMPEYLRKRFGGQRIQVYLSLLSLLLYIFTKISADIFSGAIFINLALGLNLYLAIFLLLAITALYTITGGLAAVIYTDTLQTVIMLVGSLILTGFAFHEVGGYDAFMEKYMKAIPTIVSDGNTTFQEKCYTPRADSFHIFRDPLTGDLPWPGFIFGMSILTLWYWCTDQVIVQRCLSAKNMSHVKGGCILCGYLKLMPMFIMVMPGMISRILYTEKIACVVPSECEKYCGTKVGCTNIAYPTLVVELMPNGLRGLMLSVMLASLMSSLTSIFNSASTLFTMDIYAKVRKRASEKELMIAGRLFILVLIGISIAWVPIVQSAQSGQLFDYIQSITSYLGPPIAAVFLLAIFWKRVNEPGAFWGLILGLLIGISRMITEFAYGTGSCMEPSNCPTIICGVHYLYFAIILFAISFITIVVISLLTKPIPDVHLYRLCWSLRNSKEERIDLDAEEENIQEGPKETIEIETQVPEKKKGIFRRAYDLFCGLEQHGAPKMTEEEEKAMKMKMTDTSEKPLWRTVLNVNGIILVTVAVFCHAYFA


Columns and labels:
hSGLT1 = molecular target: T1, hSGLT1; test: [14C]AMG uptake expressed by hSGLT1 in Xenopus laevis oocytes; type: cell-based
Method: (§1) Stage V-VI oocytes were removed from Xenopus laevis clawed toads, selected and injected with cRNAs or water as described earlier (Veyhl et al., (1994) J. Biol. Chem. 268, 25041-25053). Per oocyte […] of water (control) or water containing plasma membrane transporter cRNAs alone or together with different amounts of hRS1-cRNA were injected. For translation the injected oocytes were incubated for 2-3 days (16° C.) in ORi buffer (5 mM HEPES-Tris, pH 7.4, 100 mM NaCl, 3 mM KCl, 2 mM CaCl and 1 mM MgCl2) containing 50 mg/l gentamycin (Veyhl et al., (1994) J. Biol. Chem. 268, 25041-25053).
(§2) [^14C]-AMG uptake of expressed plasma membrane transporters in oocytes was measured as described earlier Veyhl et al., (1994) J. Biol. Chem. 268, 25041-25053. Each uptake value represents the mean±SEM (n=8-10 oocytes). All experiments were performed with at least 3 batches of Xenopus oocytes.
Dynamin, a member of structurally related but functionally heterogeneous family of GTPases, that is required for clathrin-mediated and other types of endocytosis. After GTP binding dynamin assembles to a ring around the neck of coated pits and induces fission and release of vesicles upon hydrolysis of GTP (Eccleston et al., (2002) Eur. Biophys. J. 31, 275-282.). […] Oocytes were injected with 2.5 ng of hSGLT1-cRNA or with 2.5 ng pf hSGLT1-cRNA plus 10 ng of hRS1-cRNA. In some experiments either 10 ng of wild-type (DyWt) dynamin cRNA or 10 ng of dominant gegative dynamin mutant (DyMu) cRNA were coinjected. After three days of incubation for expression, phlorizin inhibitable uptake of 50 μM of [^14C]AMG was measured over a time period of 15 min as described earlier (Lambotte et al., (1996) DNA Cell Biol. 15, 769-777).
(§3) According to the methods described in Example 11 Xenopus oocytes were injected with 2.5 ng of SGLT1-cRNA or with 2.5 ng of SGLT1-cRNA plus 10 ng of hRS1 and incubated three days for expression (FIG. 11). Then the oocytes were injected with 50 nl Ori buffer (controls) or with 50 nl Ori buffer containing 20 μM of the protein kinase C activator sn-1,2-dioctanoyl glycerol (DOG). After 30 min incubation the phlorizin inhibitable uptake of 50 μM [^14C]AMG was measured as in FIG. 10.

hSGLT1 and hRS1 = test: [14C]AMG uptake in Xenopus laevis oocytes coexpressing hSGLT1 and hRS1, with protein kinase C activation; type: cell-based, human; settings: coexpression of hSGLT1 and hRS1; 50 nl Ori buffer containing 20 μM DOG injected, 30 min incubation; 50 μM [14C]AMG
Method: as §1, §2
as §3, with “10. […]” for “10.”

expression of AMG uptake by hSGLT1 after coexpression of hRS1 (hSGLT1; 2.5 ng SGLT1-cRNA plus 10 ng hRS1, three days, FIG. 11)	phlorizin inhibitable uptake of 50 μM [14C]AMG (hSGLT1; 2.5 ng hSGLT1-cRNA plus 10 ng hRS1-cRNA, three days expression, hSGLT1 alone 56±7) [pmol/oocyte×15 min]	phlorizin inhibitable uptake of 50 μM [14C]AMG (hSGLT1; hSGLT1-cRNA plus hRS1-cRNA, 10 ng dominant negative dynamin mutant (DyMu) cRNA coinjected) [pmol/oocyte×15 min]	phlorizin inhibitable uptake of 50 μM [14C]AMG (hSGLT1; hSGLT1-cRNA plus hRS1-cRNA, 10 ng wild-type dynamin (DyWt) cRNA coinjected) [pmol/oocyte×15 min]	Molecule	uptake of AMG expressed by hSGLT1, change by DOG (hSGLT1; hSGLT1 alone, 50 nl Ori buffer containing 20 μM DOG injected, 30 min incubation, 50 μM [14C]AMG)	expressed uptake of AMG, change by DOG (hSGLT1 and hRS1)	Km value of AMG uptake expressed by hSGLT1 (hSGLT1; coexpression with hRS1, unpublished data not shown)	Vmax of AMG transport by hSGLT1 after coexpression with hRS1 (hSGLT1; tracer uptake studies and electrical measurements, unpublished data not shown)
				CCCCCCCC(=O)OC[C@H](CO)OC(=O)CCCCCCC [DOG, sn-1,2-dioctanoyl glycerol, reference compound]	increased	decreased		
reduced	10±1.5	37±3.5	2.5	hRS1: human RS1 protein, expressed in Xenopus oocytes from injected hRS1-cRNA; regulator of SGLT1 (protein, UniProt Q92681 1-617, looked up) Regulatory solute carrier …: MSSLPTSDGFNHPARSSGQSPDVGNPMSLARSVSASVCPIKPSDSDRIEPKAVKALKASAEFQLNSEKKEHLSLQDLSDHASSADHAPTDQSPAMPMQNSSEEITVAGNLEKSAERSTQGLKFHLHTRQEASLSVTSTRMHEPQMFLGEKDWHPENQNLSQVSDPQQHEEPGNEQYEVAQQKASHDQEYLCNIGDLELPEERQQNQHKIVDLEATMKGNGLPQNVDPPSAKKSIPSSECSGCSNSETFMEIDTAQQSLVTLLNSTGRQNANVKNIGALDLTLDNPLMEVETSKCNPSSEILNDSISTQDLQPPETNVEIPGTNKEYGHYSSPSLCGSCQPSVESAEESCPSITAALKELHELLVVSSKPASENTSEEVICQSETIAEGQTSIKDLSERWTQNEHLTQNEQCPQVSFHQAISVSVETEKLTGTSSDTGREAVENVNFRSLGDGLSTDKEGVPKSRESINKNRSVTVTSAKTSNQLHCTLGVEISPKLLAGEEDALNQTSEQTKSLSSNFILVKDLGQGIQNSVTDRPETRENVCPDASRPLLEYEPPTSHPSSSPAILPPLIFPATDIDRILRAGFTLQEALGALHRVGGNADLALLVLLAKNIVVPT			does not change	decreased
